We go through 1 molecule from publication PMC4794788, “Cell‐free synthesis of isotopically labelled peptide ligands for the functional characterization of G protein‐coupled receptors” (FEBS Open Bio, 2015).

For the test, the target named is T1, human complement 5a receptor (C5aR) (Homo sapiens, UniProt P21730).
T1 construct: 10x His (N); FLAG (N); StrepII (C); made in house; host or cells: Sf9 insect cells (recombinant baculovirus, pOET5 / flashBAC); membrane preparation
T1 sequence (P21730 1-350): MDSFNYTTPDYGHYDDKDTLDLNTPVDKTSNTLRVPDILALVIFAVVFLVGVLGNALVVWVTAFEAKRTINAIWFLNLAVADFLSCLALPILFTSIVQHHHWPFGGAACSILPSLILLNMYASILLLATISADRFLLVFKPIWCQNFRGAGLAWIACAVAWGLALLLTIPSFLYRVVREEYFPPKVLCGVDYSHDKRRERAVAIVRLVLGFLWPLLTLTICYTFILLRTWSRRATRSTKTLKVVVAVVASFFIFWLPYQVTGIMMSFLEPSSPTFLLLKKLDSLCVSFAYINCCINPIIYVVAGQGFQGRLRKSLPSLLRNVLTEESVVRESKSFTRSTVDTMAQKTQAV
The test can be described thus: Saturation radioligand binding of [^3H]‐C5a^CF to C5aR in Sf9 membranes. The following applies: radioligand 31 pM‐8 nM; human C5aR coproduced with Gαi2, Sf9 membranes (10–50 μg total protein); 120 min, room temperature; 50 mM Hepes‐NaOH pH 7.4, 5 mM MgCl2, 1 mM CaCl2, 0.5% BSA, 75 mM NaCl; nonspecific: 50 μM H2N‐ChaW; filtration, scintillation counting; means ± SEM from three or two independent experiments in triplicate; read-out: KD (dissociation constant). The text has this: The complement 5a receptor was coproduced with Gαi2 in Sf9 insect cells. The cDNA encoding the human complement 5a receptor flanked by an N‐terminal 10x His and FLAG tag and a C‐terminal StrepII tag was cloned into the pOET5 transfer vector (Oxford Expression Technologies, Oxford, UK). pOET5 contains two expression cassettes, the receptor is expressed under the control of a polyhedron promoter; Gαi2 expression is regulated by a p10 promoter. Recombinant baculoviruses were generated with the flashBAC protein expression system (Oxford Expression Technologies) according to manufacturer's instructions. […] Total membrane protein content was determined by the bicinchoninic acid (BCA) method using bovine serum albumin as the standard.
For the determination of binding parameters, membranes containing the respective receptors (10–50 μg total membrane protein) were incubated with cell‐free synthesized tritium‐labelled ligands in varying concentrations. Binding was terminated by rapid filtration over glass fibre filters pretreated with 0.3% polyethyleneimine using a Brandel harvester (Brandel, Alpha Biotech Ltd, Killearn, UK) and analysed by liquid scintillation counting. […]
Data are represented as means ± SEM from three or two independent experiments performed in triplicate and analysed in […] […]

B1: [^3H]‐C5a^CF: cell‐free‐synthesized tritium‐labelled complement 5a with N‐terminal hexa‐histidine tag; contains three proline residues (protein, UniProt P01031 678-751, looked up)
C5a anaphylatoxin: TLQKKIEEIAAKYKHSVVKKCCYDGACVNNDETCEQRAARISLGPRCIKAFTECCVVASQLRANISHKDMQLGR
modifications: C5a anaphylatoxin tritium label
Broadly, the Kd is the concentration at which binding is half-saturated. On to B1, for which the Kd amounted to 1.18 ± 0.27 nM.
